Literature values as cited in article PMC1448213.

Molecular target: high affinity NGF receptor (UniProt P35739)
UniProt P35739, sequence (P35739 33-418): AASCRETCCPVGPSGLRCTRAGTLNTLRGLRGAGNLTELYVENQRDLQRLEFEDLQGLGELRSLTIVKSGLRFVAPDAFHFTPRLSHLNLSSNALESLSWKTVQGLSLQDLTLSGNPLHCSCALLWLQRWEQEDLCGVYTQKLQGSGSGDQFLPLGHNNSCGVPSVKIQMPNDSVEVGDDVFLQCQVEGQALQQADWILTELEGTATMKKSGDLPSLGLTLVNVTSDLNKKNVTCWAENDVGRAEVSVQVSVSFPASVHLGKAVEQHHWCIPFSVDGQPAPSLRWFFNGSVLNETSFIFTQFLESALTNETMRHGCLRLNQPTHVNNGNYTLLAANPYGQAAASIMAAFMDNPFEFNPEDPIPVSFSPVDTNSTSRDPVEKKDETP

NGF, sequence (P01139 122-241): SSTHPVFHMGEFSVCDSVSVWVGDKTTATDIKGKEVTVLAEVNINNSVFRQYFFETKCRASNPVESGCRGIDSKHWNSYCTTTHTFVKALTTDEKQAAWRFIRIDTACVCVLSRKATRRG

Substance: NGF (from UniProt P01139)
- Kd: 0.6 nM
